In patent publication US12679878B2, “CRF2 receptor agonists and their use in therapy” (SANOFI, priority 2020, dated 2026):
Starred links: 1 amine or outer side, 2 acyl side, 3 side chain; linkers in the order of their positions; H or OH if unused. Non-standard residues stand in square brackets, D forms with d. Groups on a side chain read outwards from the residue. No end group written: not given here. *: point of attachment. C18 diacid = O=C(O)CCCCCCCCCCCCCCCCC(=O)*; γGlu = O=C(O)[C@H](CCC(=O)[*:2])N[*:1]; Palmitoyl = CCCCCCCCCCCCCCCC(=O)*; AEEA = NCCOCCOCC(=O)O; Aib = CC(C)(N)C(=O)O

Biological target: human corticotropin-releasing factor 2α (CRF2 α receptor) (human), Q13324
Test: cell-based or functional assay

human corticotropin-releasing factor 2α (CRF2 α receptor) (human), Q13324, sequence (Q13324 20-411): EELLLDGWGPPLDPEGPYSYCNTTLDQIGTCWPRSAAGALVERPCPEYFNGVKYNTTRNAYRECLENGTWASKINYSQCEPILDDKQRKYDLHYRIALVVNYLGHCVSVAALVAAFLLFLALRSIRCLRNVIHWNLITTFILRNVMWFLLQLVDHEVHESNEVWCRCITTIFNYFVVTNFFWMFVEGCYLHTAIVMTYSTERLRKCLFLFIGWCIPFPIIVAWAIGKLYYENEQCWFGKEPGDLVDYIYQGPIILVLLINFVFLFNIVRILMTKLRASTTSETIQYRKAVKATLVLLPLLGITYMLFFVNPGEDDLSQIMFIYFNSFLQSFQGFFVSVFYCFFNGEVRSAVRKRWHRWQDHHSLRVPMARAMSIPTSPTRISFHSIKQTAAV

Binder | EC50 [nM], 0% HSA [nM] | EC50 [nM], 0.1% HSA [nM]
IVLSLDVPIKLK([AEEA-AEEA-γGlu-C18 diacid])QILLKQERQKKQREKAKTNKQILAQV-NH2 (N-terminus assumed; SMILES CC[C@H](C)[C@H](N)C(=O)N[C@H](C(=O)N[C@@H](CC(C)C)C(=O)N[C@@H](CO)C(=O)N[C@@H](CC(C)C)C(=O)N[C@@H](CC(=O)O)C(=O)N[C@H](C(=O)N1CCC[C@H]1C(=O)N[C@H](C(=O)N[C@@H](CCCCN)C(=O)N[C@@H](CC(C)C)C(=O)N[C@@H](CCCCNC(=O)COCCOCCNC(=O)COCCOCCNC(=O)CC[C@H](NC(=O)CCCCCCCCCCCCCCCCC(=O)O)C(=O)O)C(=O)N[C@@H](CCC(N)=O)C(=O)N[C@H](C(=O)N[C@@H](CC(C)C)C(=O)N[C@@H](CC(C)C)C(=O)N[C@@H](CCCCN)C(=O)N[C@@H](CCC(N)=O)C(=O)N[C@@H](CCC(=O)O)C(=O)N[C@@H](CCCNC(=N)N)C(=O)N[C@@H](CCC(N)=O)C(=O)N[C@@H](CCCCN)C(=O)N[C@@H](CCCCN)C(=O)N[C@@H](CCC(N)=O)C(=O)N[C@@H](CCCNC(=N)N)C(=O)N[C@@H](CCC(=O)O)C(=O)N[C@@H](CCCCN)C(=O)N[C@@H](C)C(=O)N[C@@H](CCCCN)C(=O)N[C@H](C(=O)N[C@@H](CC(N)=O)C(=O)N[C@@H](CCCCN)C(=O)N[C@@H](CCC(N)=O)C(=O)N[C@H](C(=O)N[C@@H](CC(C)C)C(=O)N[C@@H](C)C(=O)N[C@@H](CCC(N)=O)C(=O)N[C@H](C(N)=O)C(C)C)[C@@H](C)CC)[C@@H](C)O)[C@@H](C)CC)[C@@H](C)CC)C(C)C)C(C)C) [SEQ ID NO: 87] | 0.23 | 16.2
IVLSLDVPIGLK([γGlu-Palmitoyl])QKLLKQQRQRKERQQAEKNARILARV-NH2 (N-terminus assumed; SMILES CCCCCCCCCCCCCCCC(=O)N[C@@H](CCC(=O)NCCCC[C@H](NC(=O)[C@H](CC(C)C)NC(=O)CNC(=O)[C@@H](NC(=O)[C@@H]1CCCN1C(=O)[C@@H](NC(=O)[C@H](CC(=O)O)NC(=O)[C@H](CC(C)C)NC(=O)[C@H](CO)NC(=O)[C@H](CC(C)C)NC(=O)[C@@H](NC(=O)[C@@H](N)[C@@H](C)CC)C(C)C)C(C)C)[C@@H](C)CC)C(=O)N[C@@H](CCC(N)=O)C(=O)N[C@@H](CCCCN)C(=O)N[C@@H](CC(C)C)C(=O)N[C@@H](CC(C)C)C(=O)N[C@@H](CCCCN)C(=O)N[C@@H](CCC(N)=O)C(=O)N[C@@H](CCC(N)=O)C(=O)N[C@@H](CCCNC(=N)N)C(=O)N[C@@H](CCC(N)=O)C(=O)N[C@@H](CCCNC(=N)N)C(=O)N[C@@H](CCCCN)C(=O)N[C@@H](CCC(=O)O)C(=O)N[C@@H](CCCNC(=N)N)C(=O)N[C@@H](CCC(N)=O)C(=O)N[C@@H](CCC(N)=O)C(=O)N[C@@H](C)C(=O)N[C@@H](CCC(=O)O)C(=O)N[C@@H](CCCCN)C(=O)N[C@@H](CC(N)=O)C(=O)N[C@@H](C)C(=O)N[C@@H](CCCNC(=N)N)C(=O)N[C@H](C(=O)N[C@@H](CC(C)C)C(=O)N[C@@H](C)C(=O)N[C@@H](CCCNC(=N)N)C(=O)N[C@H](C(N)=O)C(C)C)[C@@H](C)CC)C(=O)O) [SEQ ID NO: 6] | 0.16 | 0.18
IVLSLDVPIKLK([AEEA-AEEA-γGlu-C18 diacid])QILLKQERQKKQREQAETNKQILAQV-NH2 (N-terminus assumed; SMILES CC[C@H](C)[C@H](N)C(=O)N[C@H](C(=O)N[C@@H](CC(C)C)C(=O)N[C@@H](CO)C(=O)N[C@@H](CC(C)C)C(=O)N[C@@H](CC(=O)O)C(=O)N[C@H](C(=O)N1CCC[C@H]1C(=O)N[C@H](C(=O)N[C@@H](CCCCN)C(=O)N[C@@H](CC(C)C)C(=O)N[C@@H](CCCCNC(=O)COCCOCCNC(=O)COCCOCCNC(=O)CC[C@H](NC(=O)CCCCCCCCCCCCCCCCC(=O)O)C(=O)O)C(=O)N[C@@H](CCC(N)=O)C(=O)N[C@H](C(=O)N[C@@H](CC(C)C)C(=O)N[C@@H](CC(C)C)C(=O)N[C@@H](CCCCN)C(=O)N[C@@H](CCC(N)=O)C(=O)N[C@@H](CCC(=O)O)C(=O)N[C@@H](CCCNC(=N)N)C(=O)N[C@@H](CCC(N)=O)C(=O)N[C@@H](CCCCN)C(=O)N[C@@H](CCCCN)C(=O)N[C@@H](CCC(N)=O)C(=O)N[C@@H](CCCNC(=N)N)C(=O)N[C@@H](CCC(=O)O)C(=O)N[C@@H](CCC(N)=O)C(=O)N[C@@H](C)C(=O)N[C@@H](CCC(=O)O)C(=O)N[C@H](C(=O)N[C@@H](CC(N)=O)C(=O)N[C@@H](CCCCN)C(=O)N[C@@H](CCC(N)=O)C(=O)N[C@H](C(=O)N[C@@H](CC(C)C)C(=O)N[C@@H](C)C(=O)N[C@@H](CCC(N)=O)C(=O)N[C@H](C(N)=O)C(C)C)[C@@H](C)CC)[C@@H](C)O)[C@@H](C)CC)[C@@H](C)CC)C(C)C)C(C)C) [SEQ ID NO: 85] | 0.1 | 3.58
IVLSLDVPIKLK([AEEA-AEEA-γGlu-C18 diacid])QILLKQERQKKQREQAKTNKQILAQV-NH2 (N-terminus assumed; SMILES CC[C@H](C)[C@H](N)C(=O)N[C@H](C(=O)N[C@@H](CC(C)C)C(=O)N[C@@H](CO)C(=O)N[C@@H](CC(C)C)C(=O)N[C@@H](CC(=O)O)C(=O)N[C@H](C(=O)N1CCC[C@H]1C(=O)N[C@H](C(=O)N[C@@H](CCCCN)C(=O)N[C@@H](CC(C)C)C(=O)N[C@@H](CCCCNC(=O)COCCOCCNC(=O)COCCOCCNC(=O)CC[C@H](NC(=O)CCCCCCCCCCCCCCCCC(=O)O)C(=O)O)C(=O)N[C@@H](CCC(N)=O)C(=O)N[C@H](C(=O)N[C@@H](CC(C)C)C(=O)N[C@@H](CC(C)C)C(=O)N[C@@H](CCCCN)C(=O)N[C@@H](CCC(N)=O)C(=O)N[C@@H](CCC(=O)O)C(=O)N[C@@H](CCCNC(=N)N)C(=O)N[C@@H](CCC(N)=O)C(=O)N[C@@H](CCCCN)C(=O)N[C@@H](CCCCN)C(=O)N[C@@H](CCC(N)=O)C(=O)N[C@@H](CCCNC(=N)N)C(=O)N[C@@H](CCC(=O)O)C(=O)N[C@@H](CCC(N)=O)C(=O)N[C@@H](C)C(=O)N[C@@H](CCCCN)C(=O)N[C@H](C(=O)N[C@@H](CC(N)=O)C(=O)N[C@@H](CCCCN)C(=O)N[C@@H](CCC(N)=O)C(=O)N[C@H](C(=O)N[C@@H](CC(C)C)C(=O)N[C@@H](C)C(=O)N[C@@H](CCC(N)=O)C(=O)N[C@H](C(N)=O)C(C)C)[C@@H](C)CC)[C@@H](C)O)[C@@H](C)CC)[C@@H](C)CC)C(C)C)C(C)C) [SEQ ID NO: 86] | 0.11 | 5.7

Results, then the binder that gave them:

EC50 [nM], 0% HSA [nM] | EC50 [nM], 0.1% HSA [nM] | Binder
0.68 | 25.7 | IVLSLDVPIKLK([AEEA-AEEA-γGlu-C18 diacid])QILLKQERQKKQREKAKTN[Aib]QILAQV-NH2 (N-terminus assumed; SMILES CC[C@H](C)[C@H](N)C(=O)N[C@H](C(=O)N[C@@H](CC(C)C)C(=O)N[C@@H](CO)C(=O)N[C@@H](CC(C)C)C(=O)N[C@@H](CC(=O)O)C(=O)N[C@H](C(=O)N1CCC[C@H]1C(=O)N[C@H](C(=O)N[C@@H](CCCCN)C(=O)N[C@@H](CC(C)C)C(=O)N[C@@H](CCCCNC(=O)COCCOCCNC(=O)COCCOCCNC(=O)CC[C@H](NC(=O)CCCCCCCCCCCCCCCCC(=O)O)C(=O)O)C(=O)N[C@@H](CCC(N)=O)C(=O)N[C@H](C(=O)N[C@@H](CC(C)C)C(=O)N[C@@H](CC(C)C)C(=O)N[C@@H](CCCCN)C(=O)N[C@@H](CCC(N)=O)C(=O)N[C@@H](CCC(=O)O)C(=O)N[C@@H](CCCNC(=N)N)C(=O)N[C@@H](CCC(N)=O)C(=O)N[C@@H](CCCCN)C(=O)N[C@@H](CCCCN)C(=O)N[C@@H](CCC(N)=O)C(=O)N[C@@H](CCCNC(=N)N)C(=O)N[C@@H](CCC(=O)O)C(=O)N[C@@H](CCCCN)C(=O)N[C@@H](C)C(=O)N[C@@H](CCCCN)C(=O)N[C@H](C(=O)N[C@@H](CC(N)=O)C(=O)NC(C)(C)C(=O)N[C@@H](CCC(N)=O)C(=O)N[C@H](C(=O)N[C@@H](CC(C)C)C(=O)N[C@@H](C)C(=O)N[C@@H](CCC(N)=O)C(=O)N[C@H](C(N)=O)C(C)C)[C@@H](C)CC)[C@@H](C)O)[C@@H](C)CC)[C@@H](C)CC)C(C)C)C(C)C) [SEQ ID NO: 88]
0.3 | 15.6 | IVLSLDVPIKLK([AEEA-AEEA-γGlu-C18 diacid])QILLKQERQKKQREQAKTN[Aib]QILAQV-NH2 (N-terminus assumed; SMILES CC[C@H](C)[C@H](N)C(=O)N[C@H](C(=O)N[C@@H](CC(C)C)C(=O)N[C@@H](CO)C(=O)N[C@@H](CC(C)C)C(=O)N[C@@H](CC(=O)O)C(=O)N[C@H](C(=O)N1CCC[C@H]1C(=O)N[C@H](C(=O)N[C@@H](CCCCN)C(=O)N[C@@H](CC(C)C)C(=O)N[C@@H](CCCCNC(=O)COCCOCCNC(=O)COCCOCCNC(=O)CC[C@H](NC(=O)CCCCCCCCCCCCCCCCC(=O)O)C(=O)O)C(=O)N[C@@H](CCC(N)=O)C(=O)N[C@H](C(=O)N[C@@H](CC(C)C)C(=O)N[C@@H](CC(C)C)C(=O)N[C@@H](CCCCN)C(=O)N[C@@H](CCC(N)=O)C(=O)N[C@@H](CCC(=O)O)C(=O)N[C@@H](CCCNC(=N)N)C(=O)N[C@@H](CCC(N)=O)C(=O)N[C@@H](CCCCN)C(=O)N[C@@H](CCCCN)C(=O)N[C@@H](CCC(N)=O)C(=O)N[C@@H](CCCNC(=N)N)C(=O)N[C@@H](CCC(=O)O)C(=O)N[C@@H](CCC(N)=O)C(=O)N[C@@H](C)C(=O)N[C@@H](CCCCN)C(=O)N[C@H](C(=O)N[C@@H](CC(N)=O)C(=O)NC(C)(C)C(=O)N[C@@H](CCC(N)=O)C(=O)N[C@H](C(=O)N[C@@H](CC(C)C)C(=O)N[C@@H](C)C(=O)N[C@@H](CCC(N)=O)C(=O)N[C@H](C(N)=O)C(C)C)[C@@H](C)CC)[C@@H](C)O)[C@@H](C)CC)[C@@H](C)CC)C(C)C)C(C)C) [SEQ ID NO: 89]
